Experimental data taken from US20040038297.

T1: complement factor C4, P0C0L4
T1 chain: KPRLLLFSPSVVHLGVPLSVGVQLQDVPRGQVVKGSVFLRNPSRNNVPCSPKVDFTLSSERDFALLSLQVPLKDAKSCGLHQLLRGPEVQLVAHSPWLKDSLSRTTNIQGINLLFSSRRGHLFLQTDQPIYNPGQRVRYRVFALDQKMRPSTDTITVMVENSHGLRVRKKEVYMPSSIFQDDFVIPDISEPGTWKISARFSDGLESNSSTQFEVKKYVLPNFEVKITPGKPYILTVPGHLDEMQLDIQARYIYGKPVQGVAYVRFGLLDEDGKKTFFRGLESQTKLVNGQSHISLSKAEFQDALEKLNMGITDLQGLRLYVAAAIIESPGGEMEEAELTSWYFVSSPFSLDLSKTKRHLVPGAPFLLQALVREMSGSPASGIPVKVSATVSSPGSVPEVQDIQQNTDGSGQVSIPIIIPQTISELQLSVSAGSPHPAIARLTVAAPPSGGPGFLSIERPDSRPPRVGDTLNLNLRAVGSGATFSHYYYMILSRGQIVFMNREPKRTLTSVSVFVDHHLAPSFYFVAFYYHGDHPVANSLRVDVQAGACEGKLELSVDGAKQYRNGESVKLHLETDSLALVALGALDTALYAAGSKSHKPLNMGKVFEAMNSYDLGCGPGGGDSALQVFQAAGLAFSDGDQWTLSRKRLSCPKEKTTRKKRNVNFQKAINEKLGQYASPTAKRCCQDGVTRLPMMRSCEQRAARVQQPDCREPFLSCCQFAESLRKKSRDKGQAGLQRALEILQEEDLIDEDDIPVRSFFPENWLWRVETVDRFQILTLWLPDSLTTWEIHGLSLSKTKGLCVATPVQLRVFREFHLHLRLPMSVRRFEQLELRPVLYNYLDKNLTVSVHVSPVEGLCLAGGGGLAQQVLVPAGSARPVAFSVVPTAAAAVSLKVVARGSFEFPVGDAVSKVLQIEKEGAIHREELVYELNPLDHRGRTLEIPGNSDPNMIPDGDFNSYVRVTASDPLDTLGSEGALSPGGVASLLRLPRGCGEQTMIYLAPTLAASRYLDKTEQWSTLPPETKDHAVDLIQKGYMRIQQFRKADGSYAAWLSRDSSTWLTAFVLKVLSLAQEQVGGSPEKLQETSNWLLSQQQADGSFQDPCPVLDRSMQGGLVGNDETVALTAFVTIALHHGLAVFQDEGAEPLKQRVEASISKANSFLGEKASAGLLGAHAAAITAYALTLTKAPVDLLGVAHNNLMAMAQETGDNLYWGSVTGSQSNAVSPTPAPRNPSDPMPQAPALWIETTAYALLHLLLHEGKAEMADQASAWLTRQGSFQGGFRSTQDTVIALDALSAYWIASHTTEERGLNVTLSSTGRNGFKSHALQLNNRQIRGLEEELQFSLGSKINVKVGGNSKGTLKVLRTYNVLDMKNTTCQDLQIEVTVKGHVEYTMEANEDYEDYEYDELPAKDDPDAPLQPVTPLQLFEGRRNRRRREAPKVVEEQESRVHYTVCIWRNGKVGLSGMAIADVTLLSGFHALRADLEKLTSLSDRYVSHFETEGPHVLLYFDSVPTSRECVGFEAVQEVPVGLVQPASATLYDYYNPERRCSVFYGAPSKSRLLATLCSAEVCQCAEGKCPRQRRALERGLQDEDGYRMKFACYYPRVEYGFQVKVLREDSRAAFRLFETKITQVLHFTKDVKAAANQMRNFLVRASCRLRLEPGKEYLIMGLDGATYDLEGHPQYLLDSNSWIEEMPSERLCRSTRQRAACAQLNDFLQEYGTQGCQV

B1: C1s (protein)
chain: EPTMYGEILSPNYPQAYPSEVEKSWDIEVPEGYGIHLYFTHLDIELSENCAYDSVQIISGDTEEGRLCGQRSSNNPHSPIVEEFQVPYNKLQVIFKSDFSNEERFTGFAAYYVATDINECTDFVDVPCSHFCNNFIGGYFCSCPPEYFLHDDMKNCGVNCSGDVFTALIGEIASPNYPKPYPENSRCEYQIRLEKGFQVVVTLRREDFDVEAADSAGNCLDSLVFVAGDRQFGPYCGHGFPGPLNIETKSNALDIIFQTDLTGQKKGWKLRYHGDPMPCPKEDTPNSVWEPAKAKYVFRDVVQITCLDGFEVVEGRVGATSFYSTCQSNGKWSNSKLKCQPVDCGIPESIENGKVEDPESTLFGSVIRYTCEEPYYYMENGGGGEYHCAGNGSWVNEVLGPELPKCVPVCGVPREPFEEKQRIIGGSDADIKNFPWQVFFDNPWAGGALINEYWVLTAAHVVEGNREPTMYVGSTSVQTSRLAKSKMLTPEHVFIHPGWKLLEVPEGRTNFDNDIALVRLKDPVKMGPTVSPICLPGTSSDYNLMDGDLGLISGWGRTEKRDRAVRLKAARLPVAPLRKCKEVKVEKPTADAEAYVFTPNMICAGGEKGMDSCKGDSGGAFAVQDPNDKTKFYAAGLVSWGPQCGTYGLYTRVKNYVDWIMKTMQENSTPRED
B2: MASP-1 (MBP-associated serine protease) (protein)
chain: HTVELNNMFGQIQSPGYPDSYPSDSEVTWNITVPDGFRIKLYFMHFNLESSYLCEYDYVKVETEDQVLATFCGRETTDTEQTPGQEVVLSPGSFMSITFRSDFSNEERFTGFDAHYMAVDVDECKEREDEELSCDHYCHNYIGGYYCSCRFGYILHTDNRTCRVECSDNLFTQRTGVITSPDFPNPYPKSSECLYTIELEEGFMVNLQFEDIFDIEDHPEVPCPYDYIKIKVGPKVLGPFCGEKAPEPISTQSHSVLILFHSDNSGENRGWRLSYRAAGNECPELQPPVHGKIEPSQAKYFFKDQVLVSCDTGYKVLKDNVEMDTFQIECLKDGTWSNKIPTCKIVDCRAPGELEHGLITFSTRNNLTTYKSEIKYSCQEPYYKMLNNNTGIYTCSAQGVWMNKVLGRSLPTCLPVCGLPKFSRKLMARIFNGRPAQKGTTPWIAMLSHLNGQPFCGGSLLGSSWIVTAAHCLHQSLDPEDPTLRDSDLLSPSDFKIILGKHWRLRSDENEQHLGVKHTTLHPQYDPNTFENDVALVELLESPVLNAFVMPICLPEGPQQEGAMVIVSGWGKQFLQRFPETLMEIEIPIVDHSTCQKAYAPLKKKVTRDMICAGEKEGGKDACAGDSGGPMVTLNRERGQWYLVGTVSWGDDCGKKDRYGVYSYIHHNKDWIQRVTGVRN
B3: mannan-binding lectin associated serine protease-2 (MASP-2) (protein)
chain: TPLGPKWPEPVFGRLASPGFPGEYANDQERRWTLTAPPGYRLRLYFTHFDLELSHLCEYDFVKLSSGAKVLATLCGQESTDTERAPGKDTFYSLGSSLDITFRSDYSNEKPFTGFEAFYAAEDIDECQVAPGEAPTCDHHCHNHLGGFYCSCRAGYVLHRNKRTCSALCSGQVFTQRSGELSSPEYPRPYPKLSSCTYSISLEEGFSVILDFVESFDVETHPETLCPYDFLKIQTDREEHGPFCGKTLPHRIETKSNTVTITFVTDESGDHTGWKIHYTSTAHACPYPMAPPNGHVSPVQAKYILKDSFSIFCETGYELLQGHLPLKSFTAVCQKDGSWDRPMPACSIVDCGPPDDLPSGRVEYITGPGVTTYKAVIQYSCEETFYTMKVNDGKYVCEADGFWTSSKGEKSLPVCEPVCGLSARTTGGRIYGGQKAKPGDFPWQVLILGGTTAAGALLYDNWVLTAAHAVYEQKHDASALDIRMGTLKRLSPHYTQAWSEAVFIHEGYTHDAGFDNDIALIKLNNKVVINSNITPICLPRKEAESFMRTDDIGTASGWGLTQRGFLARNLMYVDIPIVDHQKCTAAYEKPPYPRGSVTANMLCAGLESGGKDSCRGDSGGALVFLDSETERWFVGGIVSWGSMNCGEAGQYGVYTKVINYIPWIENIISDF

Molecular target: T1, complement factor C4, P0C0L4

Protein | C4 deposition on a Western blot incubated with human serum (C4 converting activity)
B1 | C4 deposition, which could be inhibited by enzyme inhibitors, was observed at a position corresponding to C1r and C1s, which are not separated by the technique employed
B2 | no C4 deposition was observed at positions corresponding to MASP-1
B3 | C4 was deposited at a position corresponding to the MASP-2 band
